From publication PMC10517255, “Cysteine Enrichment Mediates Co-Option of Uricase in Reptilian Skin and Transition to Uricotelism” (Molecular Biology and Evolution, 2023) come the findings set out here.

In data set [1] the target is T1, GgUox (Gallus gallus, UniProt A0A8V0ZED1).
T1 construct: gene LOC101747367; uricase-like CDS in pET28 (NheI/XhoI), N-terminal His-tag with thrombin site (uncleaved for crystals)
T1 sequence (A0A8V0ZED1 1-320): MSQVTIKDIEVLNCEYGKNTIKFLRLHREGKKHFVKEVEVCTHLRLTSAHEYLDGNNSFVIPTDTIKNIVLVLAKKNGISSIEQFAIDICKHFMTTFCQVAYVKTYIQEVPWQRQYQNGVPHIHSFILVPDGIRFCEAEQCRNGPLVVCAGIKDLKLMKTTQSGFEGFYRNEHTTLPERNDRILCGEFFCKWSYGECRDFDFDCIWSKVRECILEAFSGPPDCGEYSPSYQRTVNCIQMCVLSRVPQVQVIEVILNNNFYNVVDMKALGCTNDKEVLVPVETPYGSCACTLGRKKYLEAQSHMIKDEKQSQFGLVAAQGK
The data set can be described thus: X-ray crystallography, […]-2.[…] Å, reduced and H2O2-oxidized crystals. The note with it: active site at dimer interface; uncleaved His-tag; space groups P2_12_12_1 and C222_1. It counts as binding.

In data set [2] the target is T2, GgUox (Gallus gallus, UniProt A0A8V0ZED1, Y230H).
T2 construct: gene LOC101747367; uricase-like CDS in pET28 (NheI/XhoI), N-terminal His-tag with thrombin site (uncleaved for crystals)
T2 sequence (A0A8V0ZED1 1-320 Y230H): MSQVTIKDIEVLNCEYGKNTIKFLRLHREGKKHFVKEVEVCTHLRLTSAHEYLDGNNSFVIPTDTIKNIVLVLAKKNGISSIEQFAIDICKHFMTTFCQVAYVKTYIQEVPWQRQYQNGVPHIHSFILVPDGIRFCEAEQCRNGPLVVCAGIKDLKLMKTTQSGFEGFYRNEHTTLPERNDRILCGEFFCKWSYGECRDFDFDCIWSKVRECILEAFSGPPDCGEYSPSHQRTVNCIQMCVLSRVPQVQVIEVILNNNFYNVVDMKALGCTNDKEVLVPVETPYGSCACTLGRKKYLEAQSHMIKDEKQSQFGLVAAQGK
The data set can be described thus: uricase activity, specific activity. The format is biochemical. The note with it: activity relative to wild type.

The target of data set [3] is T3, DrUox (Danio rerio, UniProt Q6DG85).
T3 construct: gene uox; enzyme described in Marchetti et al. 2016; tetrameric, about 150 kDa
T3 sequence (Q6DG85 1-298): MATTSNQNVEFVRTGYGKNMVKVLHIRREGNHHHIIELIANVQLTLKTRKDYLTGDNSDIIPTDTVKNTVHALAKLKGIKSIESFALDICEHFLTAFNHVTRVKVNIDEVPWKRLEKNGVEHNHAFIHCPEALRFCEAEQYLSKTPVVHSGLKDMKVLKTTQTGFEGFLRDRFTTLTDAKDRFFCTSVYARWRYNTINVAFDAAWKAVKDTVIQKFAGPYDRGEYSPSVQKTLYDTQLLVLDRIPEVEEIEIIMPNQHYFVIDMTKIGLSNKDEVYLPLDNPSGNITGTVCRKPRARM
The data set can be described thus: stopped flow, single turnover, diode array. It counts as biochemical. The following applies: 35 μM enzyme, 25 μM urate, 100 mM potassium phosphate pH 7.6, 25°C.

Data set [4] addresses Gallus gallus Uox (cysteine-rich urate oxidase) (Gallus gallus). The data set can be described thus: crystal structure; GgUox with uncleaved N-terminal His tag in complex with the inhibitor 8-azaxanthine; space groups C222_(1) and P2_(1)2_(1)2_(1); reduced, and oxidised by a 100 mM H2O2 soak for 15 min.
Data set [5] has the same target. The data set can be described thus: atomic force microscopy; particle volume of the enzyme on mica, native or pre-incubated with βME, 100 nM protein in 4 mM HEPES pH 7.4, 10 mM NaCl, 2 mM MgCl2, imaged in air, tapping mode.
Data set [6] has the same target. The data set can be described thus: SEC; purified GgUox, single peak (supplementary fig. S4B). On the technique in general: In gel filtration, larger molecules generally elute earlier.
Substrate in data set [7]: O=c1[nH]c(=O)c2[nH]c(=O)[nH]c2[nH]1
The data set can be described thus: purified protein. The format is biochemical, Gallus gallus. The following applies: 100 mM potassium phosphate pH 7.6, 25°C, 4.1 µM GgUox, 1 µM HIUase, 2-140 μM urate.

Data set [8] concerns the molecule itself. The data set can be described thus: atomic force microscopy; particle volume of the enzyme on mica, native or pre-incubated with βME, 100 nM protein in 4 mM HEPES pH 7.4, 10 mM NaCl, 2 mM MgCl2, imaged in air, tapping mode.

For `O=c1[nH]c(=O)c2nn[nH]c2[nH]1` [8-azaxanthine], in data set [1], the “X-ray crystallography, 1.7-2.1 Å, reduced and H2O2-oxidized crystals” value was “We crystallized GgUox in complex with its AZA inhibitor in two space groups”. Consider `O=c1[nH]c(=O)c2[nH]c(=O)[nH]c2[nH]1` [uric acid], for which the “uricase activity, specific activity” value in data set [2] is “we mutated the tyrosine in the active site of GgUox to either histidine (Y230H)”. In addition, the “stopped flow, single turnover, diode array” value in data set [3] is reported as “the same experiment was carried out with DrUox for comparison”. “Gallus gallus Uox (cysteine-rich urate oxidase) (enzyme)”: the stoichiometry N in data set [4], in data set [5] and in data set [6] was 4 throughout.

B1: GgUox (Gallus gallus) (protein)
chain: MSQVTIKDIEVLNCEYGKNTIKFLRLHREGKKHFVKEVEVCTHLRLTSAHEYLDGNNSFVIPTDTIKNIVLVLAKKNGISSIEQFAIDICKHFMTTFCQVAYVKTYIQEVPWQRQYQNGVPHIHSFILVPDGIRFCEAEQCRNGPLVVCAGIKDLKLMKTTQSGFEGFYRNEHTTLPERNDRILCGEFFCKWSYGECRDFDFDCIWSKVRECILEAFSGPPDCGEYSPSYQRTVNCIQMCVLSRVPQVQVIEVILNNNFYNVVDMKALGCTNDKEVLVPVETPYGSCACTLGRKKYLEAQSHMIKDEKQSQFGLVAAQGK
notes: uricase-like CDS in pET28 (NheI/XhoI), N-terminal His-tag with thrombin site (uncleaved for crystals)
Regarding B1, in data set [7], the Km was determined as 12.5 µM and the kcat turned out to be 0.03 s⁻¹.

B2: Danio rerio Uox (enzyme, UniProt Q6DG85 1-298, looked up)
chain: MATTSNQNVEFVRTGYGKNMVKVLHIRREGNHHHIIELIANVQLTLKTRKDYLTGDNSDIIPTDTVKNTVHALAKLKGIKSIESFALDICEHFLTAFNHVTRVKVNIDEVPWKRLEKNGVEHNHAFIHCPEALRFCEAEQYLSKTPVVHSGLKDMKVLKTTQTGFEGFLRDRFTTLTDAKDRFFCTSVYARWRYNTINVAFDAAWKAVKDTVIQKFAGPYDRGEYSPSVQKTLYDTQLLVLDRIPEVEEIEIIMPNQHYFVIDMTKIGLSNKDEVYLPLDNPSGNITGTVCRKPRARM
notes: Danio rerio urate oxidase (DrUox), as in Marchetti et al. 2016; also called DrUox; uricase
B2: the “stoichiometry N” value in data set [8] was found to be 4.

For orientation: stoichiometry N means a count of units in the complex or per binding partner. As a reminder, the Km is the concentration of substrate that gives half-maximal velocity. Broadly, the kcat is the number of substrate molecules converted per active site and unit of time at saturation.
